Assay results from PMC6441080, “Coordination of capsule assembly and cell wall biosynthesis in Staphylococcus aureus” (Nature Communications, 2019).

Test system: CC(=O)N[C@H]1[C@@H](OP(=O)(O)OP(=O)(O)OC[C@H]2O[C@@H](n3ccc(=O)[nH]c3=O)[C@H](O)[C@@H]2O)O[C@H](C)[C@H](O)[C@@H]1O
Experiment: purified protein
Settings: Mg2+

“CapM (Staphylococcus aureus subsp. aureus USA300)” was tested, and the Km was 2,309 ± 311.8 µM.
